Source: patent publication US20190031783A1 (AbbVie / Abbott, published 2019)

Legend:
[1] = target: T1, purified recombinant human DLL4 extracellular domain (ECD) (human, UniProt Q9NR61 27-529); assay: SPR (Biacore), antibody captured via anti-human Fc, DLL4 ECD injected, 25 C
T1 construct: extracellular domain; also called human DLL4529; huDLL4
Experimental: (§1) For DLL4 binding kinetic measurements the assay buffer was HBS-EPB: 10 mM Hepes, pH7.5, 150 mM NaCl, 3 mM EDTA, 0.005% Tween 20, 0.1 mg/ml BSA (Sigma A7906). For VEGF binding kinetic measurements the assay buffer was HBS-EP+(3N01B): 10 mM Hepes, pH7.5, 300 mM NaCl, 3 mM EDTA, 0.05% Tween 20, 0.1 mg/ml BSA (Sigma A7906). For example, approximately 9000 RU of goat anti-human Fc specific polyclonal antibody (Thermo Fisher Scientific Inc., Rockford, Ill.) diluted in 10 mM sodium acetate (pH 4.5) is directly immobilized across a CM5 research grade biosensor chip using a standard amine coupling kit according to manufacturer's instructions and procedures at 25 ug/ml. Unreacted moieties on the biosensor surface are blocked with ethanolamine. For kinetic analysis, rate equations derived from the 1:1 Langmuir binding model are fitted simultaneously to multiple antigen injections (using global fit analysis) with the use of Scrubber 2 (BioLogic Software), Biacore Biaevaluation 4.0.1 software or Biacore T100 Evaluation software. Purified antibodies are diluted in running buffer for capture across goat anti-human Fc reaction surfaces. Antibodies to be captured as a ligand (1 ug/ml) are injected over reaction matrices at a flow rate of 10 ul/min. During the assay, all measurements are referenced against the capture surface alone (i.e. with no captured antibody). […] The equilibrium dissociation constant KD (M) of the reaction between antibodies and the target antigen is then calculated from the kinetic rate constants by the following formula: KD=Koff/Kₒₙ. Binding is recorded as a function of time and kinetic rate constants are calculated.

[2] = target: T2, full-length human DLL4 on HEK293G cells (human, UniProt Q9NR61 27-685); assay: cell-based or functional assay
[3] = target: T2, full-length human DLL4 on HEK293G cells; assay: flow cytometry (FACS) on HEK293G cells overexpressing full-length DLL4
Experimental: Stable HEK293G cell lines overexpressing full-length DLL4 were harvested from tissue culture flasks, washed four times and resuspended in phosphate buffered saline (PBS) containing 1% bovine serum albumin and 1 mM CaCl₂ (FACS buffer). 1.5×10⁵ cells were incubated with DVD binding proteins at various concentrations in FACS buffer for 60 minutes on ice. […] Following an incubation on ice (4° C., 60 minutes), cells were washed three times and resuspended in FACS buffer. Fluorescence was measured using a Becton Dickinson FACSCalibur-HTS (Becton Dickinson, San Jose, Calif.). Data was analyzed using Graphpad Prism software and EC₅₀ values were reported as the concentration of antibody to achieve 50% of maximal antibodies binding to DLL4 expressing cells.

[4] = target: T1, purified recombinant human DLL4 …; assay: Notch competition ELISA: inhibition of biotin DLL4 ECD binding to coated human Notch-1
Experimental: Plates were then washed 3× with wash buffer (PBS, 0.05% Tween-20) and blocked with 200 μl/well blocking buffer (D-PBS, 1% BSA, 1 mM CaCl₂, 0.05% Tween-20) for 1 hour at 25° C. […] Assay plates were washed after blocking, and incubated with DLL4/antibody mixtures (100 μl/well, 1 hour at 25° C. with shaking). Plates were washed again and 100 μl/well of streptavidin conjugated with HRP (Fitzgerald #65R-S104PHRPx, diluted 1:5,000 in blocking buffer) was added for 1 hour at 25° C. with shaking. After a final wash, plates were developed using 100 μl/well substrate (TMB Sigma #T8665), and the reaction was stopped using 100 μl/well 1N HCl, and the absorbance was read at 450 nm. Data was analyzed using Graphpad Prism software and IC₅₀ values were reported as the concentration of antibody required to achieve 50% reduction of DLL4 binding to Notch1.

[5] = target: T1, purified recombinant human DLL4 …; assay: SPR (Biacore), DVD captured via anti-human Fc, DLL4 ECD injected, 25 C
Experimental: as §1

[6] = target: human DLL4, full-length, expressed on HEK293G cells (human, UniProt Q9NR61 27-685); assay: cell-based or functional assay

Binder | Notch Activation IC50 [2] [nM] | EC50 [3] [nM] | IC50 [4] [nM] | Kd [5] [nM] | other results
humanized anti-DLL4 mAb (h1A11.1) (antibody, V domains shown, Parental humanized anti-DLL4 mAb) VH: EVQLVESGGGLVQPGGSLRLSCAASGFTFSNFPMAWVRQAPGKGLEWVATISSSDGTTYYRDSVKGRFTISRDNAKNSLYLQMNSLRAEDTAVYYCARGYYNSPFAYWGQGTLVTVSS VL: DIQMTQSPSSLSASVGDRVTITCRASEDIYSNLAWYQQKPGKAPKLLIYDTNNLADGVPSRFSGSGSGTDFTLTISSLQPEDFATYYCQQYNNYPPTFGQGTKLEIKR |  |  |  |  | Kd [1]: 12 nM; koff [1]: 0.00193 s⁻¹; kon [1]: 160000 M⁻¹ s⁻¹
h1A11.1-LL-Av (bispecific antibody, human IgG1, DVD-Ig; also called h1A11.1-LL-Av DVD) VH: EVQLVESGGGLVQPGGSLRLSCAASGFTFSNFPMAWVRQAPGKGLEWVATISSSDGTTYYRDSVKGRFTISRDNAKNSLYLQMNSLRAEDTAVYYCARGYYNSPFAYWGQGTLVTVSSASTKGPSVFPLAPEVQLVESGGGLVQPGGSLRLSCAASGYTFTNYGMNWVRQAPGKGLEWVGWINTYTGEPTYAADFKRRFTFSLDTSKSTAYLQMNSLRAEDTAVYYCAKYPHYYGSSHWYFDVWGQGTLVTVSS VL: DIQMTQSPSSLSASVGDRVTITCRASEDIYSNLAWYQQKPGKAPKLLIYDTNNLADGVPSRFSGSGSGTDFTLTISSLQPEDFATYYCQQYNNYPPTFGQGTKLEIKRTVAAPSVFIFPPDIQMTQSPSSLSASVGDRVTITCSASQDISNYLNWYQQKPGKAPKVLIYFTSSLHSGVPSRFSGSGSGTDFTLTISSLQPEDFATYYCQQYSTVPWTFGQGTKVEIKR | 4.56 | 5.04 | 0.79 |  | 
h1A11.1-LS-Av (bispecific antibody, human IgG1, DVD-Ig; also called h1A11.1-LS-Av DVD) VH: EVQLVESGGGLVQPGGSLRLSCAASGFTFSNFPMAWVRQAPGKGLEWVATISSSDGTTYYRDSVKGRFTISRDNAKNSLYLQMNSLRAEDTAVYYCARGYYNSPFAYWGQGTLVTVSSASTKGPSVFPLAPEVQLVESGGGLVQPGGSLRLSCAASGYTFTNYGMNWVRQAPGKGLEWVGWINTYTGEPTYAADFKRRFTFSLDTSKSTAYLQMNSLRAEDTAVYYCAKYPHYYGSSHWYFDVWGQGTLVTVSS VL: DIQMTQSPSSLSASVGDRVTITCRASEDIYSNLAWYQQKPGKAPKLLIYDTNNLADGVPSRFSGSGSGTDFTLTISSLQPEDFATYYCQQYNNYPPTFGQGTKLEIKRTVAAPDIQMTQSPSSLSASVGDRVTITCSASQDISNYLNWYQQKPGKAPKVLIYFTSSLHSGVPSRFSGSGSGTDFTLTISSLQPEDFATYYCQQYSTVPWTFGQGTKVEIKR | 4.59 | 5 | 0.76 | 11 | 
h1A11.1-SL-Av Fab (Fab) chain 1: EVQLVESGGGLVQPGGSLRLSCAASGFTFSNFPMAWVRQAPGKGLEWVATISSSDGTTYYRDSVKGRFTISRDNAKNSLYLQMNSLRAEDTAVYYCARGYYNSPFAYWGQGTLVTVSSASTKGPEVQLVESGGGLVQPGGSLRLSCAASGYTFTNYGMNWVRQAPGKGLEWVGWINTYTGEPTYAADFKRRFTFSLDTSKSTAYLQMNSLRAEDTAVYYCAKYPHYYGSSHWYFDVWGQGTLVTVSS chain 2: not shown |  |  |  |  | IC50 (nM), DLL4 neutralization cellular assay, 0 nM VEGF [6]: > 40 nM; IC50 (nM), DLL4 neutralization cellular assay, 150 nM BSG2 present [6]: > 40 nM; IC50 (nM), DLL4 neutralization cellular assay, 150 nM VEGF present [6]: 4.56 nM
h1A11.1-SS-Av (bispecific antibody, human IgG1, DVD-Ig; also called h1A11.1-SS-Av DVD) VH: EVQLVESGGGLVQPGGSLRLSCAASGFTFSNFPMAWVRQAPGKGLEWVATISSSDGTTYYRDSVKGRFTISRDNAKNSLYLQMNSLRAEDTAVYYCARGYYNSPFAYWGQGTLVTVSSASTKGPEVQLVESGGGLVQPGGSLRLSCAASGYTFTNYGMNWVRQAPGKGLEWVGWINTYTGEPTYAADFKRRFTFSLDTSKSTAYLQMNSLRAEDTAVYYCAKYPHYYGSSHWYFDVWGQGTLVTVSS VL: DIQMTQSPSSLSASVGDRVTITCRASEDIYSNLAWYQQKPGKAPKLLIYDTNNLADGVPSRFSGSGSGTDFTLTISSLQPEDFATYYCQQYNNYPPTFGQGTKLEIKRTVAAPDIQMTQSPSSLSASVGDRVTITCSASQDISNYLNWYQQKPGKAPKVLIYFTSSLHSGVPSRFSGSGSGTDFTLTISSLQPEDFATYYCQQYSTVPWTFGQGTKVEIKR | 7.47 | 3.75 |  | 12 | 
